Broadly, the Ki is the equilibrium dissociation constant of an inhibitor or competing ligand from its target. One may read the EC50 as the concentration needed to bring the measured effect to its halfway point. What is called half-life is the time in which the quantity being followed falls by half. What is called Vss is a proportionality between amount in the body and measured concentration, not a real space. Usually Cmax stands for the highest concentration seen after dosing. What is called MRT is a mean duration of stay, worked out from the concentration-time curve. Broadly, the Tmax is the time at which the peak concentration occurs.

Where “and” joins values, the source holds several entries; their conditions need not be identical. Equal entries are not always repeated. Where two headings read alike, the source gives them in different places. Marks after values point to notes of the source that are not given here. Ends that are not written are not given here.

For series [1], the target named is human μ opioid receptor (Homo sapiens, UniProt P35372). Put plainly: Radioligand competition binding assay, biphalin series, μ opioid receptor. As for the experimental part: (§1) Competition binding experiments were conducted by incubating membrane protein to equilibrium in triplicate in the presence of a fixed concentration of radioligand and increasing concentrations (0.1 nM to 10 μM) of test compound in 100 μL final volume. The radioligands used were specific for each receptor type, and the assay conditions are described in Table BIP6.3. Following incubations, the membranes were rapidly filtered through GF/B filter plate (presoaked with 0.5% polyethyleneimine), washed four times with cold 50 mM Tris-HCl, pH 7.5, and the bound radioactivity was then measured. Non-specific binding was measured in the presence of excess naloxone (100 μM); this value was subtracted from the total binding to yield the specific binding at each test concentration.
(§2) The test compounds were stored under acidic condition to stabilize the PEG conjugation.
(§3) Ki (affinity of test compound) was obtained using the Cheng Prusoff correction using experimental Kd (affinity of radioligand) values that were previously determined under these assay conditions.
(Displacement assays read how much labelled ligand stays bound in the presence of the test substance.)

The format of series [2] is physicochemical.
Series [3] addresses T1, GPR54 G-Protein coupled receptor (Homo sapiens, UniProt Q969F8).
T1 construct: host or cells: Chem-1 host cells
The series can be described thus: FLIPR calcium flux agonist assay on GPR54. In kind it is cell-based. The following applies: no release incubation; for EC50 / EC50 (nM): agonist activation at GPR54. Background: Calcium assays in cells follow changes in intracellular calcium, usually with a dye or a luminescent sensor.

Series [4] can be described thus: OGF release rate and stability of OGF. In kind it is physicochemical. The settings on record: 160 hours at 37° C., pH 7.5 and 16 hours at 37° C., pH 10.0.
For series [5], the target named is human δ opioid receptor (Homo sapiens, UniProt P41143). Put plainly: Radioligand competition binding assay, biphalin series, δ opioid receptor. As for the experimental part:
as §1, §2, §3

For series [6] the following is noted: due to rapid proteolysis and glomerular filtration; cited from earlier work.
Series [7] deals with rat red blood cells. Put plainly: Hemolysis assay, protegrin-1 series. The series is classed as cell-based. The following applies: for hemolytic effect: rat red blood cells, 37° C., relative to 0.25% Triton X-100.
Procedure: Approximately 10 mL of blood was drawn from one adult rat into Na Heparin tube and kept in ice until use. Red blood cells were washed three times with 10 mL of cold DPBS ((−) CaCl2 and (−) MgCl2) and collected by sequential centrifugation at 3,000 g for 5 min at 4° C. Pellets of red blood cells were resuspended with DPBS ((−) CaCl2 and (−) MgCl2) and the total volume was brought up to initial volume of blood drawn. One mL of resuspended red blood cells was resuspended with 49 mL of DPBS ((−) CaCl2 and (−) MgCl2). Incubation mixture was prepared by 400 fold dilution of stock solution of test compounds with final volume of 800 μl. Final concentration of test compounds was equimolar to that of respective unconjugated compounds. Hemolysis incubation was done at 37° C. with mild agitation. For releasable conjugates, test compounds were preincubated in 1×PBS at 37° C. prior to hemolysis assay. Incubation mixture was centrifuged at 3,000 g for 5 min at 4° C., and the absorbance at 550 nm was read from supernatant.
A short description of series [8]: Pharmacokinetic study of protegrin conjugates, single IV dose in rats. In kind it is in vivo, Sprague-Dawley rats. The settings on record: […] equivalent protein mass IV. The method, then: The weight range of the animals was 313-346 grams. All animals were food fasted overnight.
Following the last collection point, the animals were euthanized. Bioanalytical analysis: analysis of the plasma samples was conducted using non-validated LC-MS/MS methods.

Series [9] in a line: Pharmacokinetic study of V681 (V13AD) conjugates, single IV dose in rats. The settings on record: 1.0 mg/kg equivalent protein mass IV. The series is classed as in vivo, Sprague-Dawley rats. An excerpt:
The weight range of the animals was 311-346 grams. All animals were food fasted overnight. […] The predose sample was collected from the JVC.
Following the last collection point, the animals were euthanized.

The subject of series [10] is rat red blood cells. The series can be described thus: Hemolysis assay, V681(V13AD) series. In kind it is cell-based. The following applies: 37° C., relative to 0.25% Triton X-100.
Procedure: Hemolysis assay. Approximately 10 mL of blood was drawn from one adult rat into Na Heparin tube and kept in ice until use. Red blood cells were washed three times with 10 mL of cold DPBS ((−) CaCl2 and (−) MgCl2) and collected by sequential centrifugation at 3,000 g for 5 min at 4° C. Pellets of red blood cells were resuspended with DPBS ((−) CaCl2 and (−) MgCl2) and the total volume was brought up to initial volume of blood drawn. One mL of resuspended red blood cells was resuspended with 49 mL of DPBS ((−) CaCl2 and (−) MgCl2). Incubation mixture was prepared by 400 fold dilution of stock solution of test compounds with final volume of 800 μl. Final concentration of test compounds was equimolar to that of respective unconjugated compounds. Hemolysis incubation was done at 37° C. with mild agitation.
For releasable conjugates, test compounds were preincubated in 1×PBS at 37° C. prior to hemolysis assay. Incubation mixture was centrifuged at 3,000 g for 5 min at 4° C., and the absorbance at 550 nm was read from supernatant.
For series [11] the following is noted: pH 5.
Where [12] appears, read: Pre-incubated in assay buffer pH 7.5 at 37° C. (72 h biphalin and di-CAC; 20 h di-C2 and di-SBC).
Where [13] appears, read: sample diluted on the day of the assay (unreleased).
Where [14] appears, read: test compound in plasma (non-releasable conjugates, native PG-1), Mean ± SD.
Where [15] appears, read: protegrin-1 in plasma (released or native).

T1 sequence (Q969F8 whole entry): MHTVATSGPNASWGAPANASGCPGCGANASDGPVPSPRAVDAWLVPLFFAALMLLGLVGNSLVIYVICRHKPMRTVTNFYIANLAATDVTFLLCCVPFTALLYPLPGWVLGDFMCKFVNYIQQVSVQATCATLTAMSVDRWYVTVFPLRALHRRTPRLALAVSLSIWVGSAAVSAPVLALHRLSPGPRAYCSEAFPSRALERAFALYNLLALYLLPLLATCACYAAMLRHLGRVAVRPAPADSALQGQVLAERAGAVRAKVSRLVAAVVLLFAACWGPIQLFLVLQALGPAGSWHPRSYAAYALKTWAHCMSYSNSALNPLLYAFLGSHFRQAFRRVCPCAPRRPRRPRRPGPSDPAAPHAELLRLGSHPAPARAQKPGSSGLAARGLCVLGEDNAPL
Sequence of human μ opioid receptor (P35372 whole entry): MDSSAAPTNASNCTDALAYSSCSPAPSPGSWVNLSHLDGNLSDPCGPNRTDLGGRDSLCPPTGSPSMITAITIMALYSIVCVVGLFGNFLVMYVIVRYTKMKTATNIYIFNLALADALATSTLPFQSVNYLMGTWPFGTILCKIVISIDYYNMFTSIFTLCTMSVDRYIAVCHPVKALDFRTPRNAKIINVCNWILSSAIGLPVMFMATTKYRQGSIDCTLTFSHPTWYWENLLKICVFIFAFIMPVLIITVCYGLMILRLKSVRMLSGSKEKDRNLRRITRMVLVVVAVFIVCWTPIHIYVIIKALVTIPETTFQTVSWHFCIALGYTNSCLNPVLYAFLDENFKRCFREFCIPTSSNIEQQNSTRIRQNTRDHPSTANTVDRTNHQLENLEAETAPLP
Sequence of human δ opioid receptor (P41143 whole entry): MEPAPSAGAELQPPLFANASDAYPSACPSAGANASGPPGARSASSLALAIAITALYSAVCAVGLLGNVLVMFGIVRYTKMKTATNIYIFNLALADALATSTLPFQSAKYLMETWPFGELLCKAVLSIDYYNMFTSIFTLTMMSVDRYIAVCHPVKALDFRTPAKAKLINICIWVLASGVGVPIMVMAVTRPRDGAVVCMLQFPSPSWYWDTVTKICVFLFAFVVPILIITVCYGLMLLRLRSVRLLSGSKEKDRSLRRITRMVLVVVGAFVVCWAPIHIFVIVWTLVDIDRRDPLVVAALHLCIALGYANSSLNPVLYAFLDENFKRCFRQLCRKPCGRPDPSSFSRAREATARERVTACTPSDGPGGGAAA

As to `C[C@@H](NC(=O)[C@@H](N)Cc1ccc(O)cc1)C(=O)NCC(=O)N[C@@H](Cc1ccccc1)C(=O)NNC(=O)[C@H](Cc1ccccc1)NC(=O)CNC(=O)[C@@H](C)NC(=O)[C@@H](N)Cc1ccc(O)cc1` [Biphalin, reference compound], the Ki was 3.1 nM in series [1] (setting [12]); 3.4 nM and 4.7 nM in series [1] (setting [13]). Further, the “stability of the peptide following incubation” value in series [2] (72 hour incubation in assay buffer, pH 7.5 at 37° C.) is “remained stable”.

As to `CC(C)C[C@H](NC(=O)CNC(=O)[C@H](Cc1ccccc1)NC(=O)[C@H](CO)NC(=O)[C@H](CC(N)=O)NC(=O)[C@H](Cc1c[nH]c2ccccc12)NC(=O)[C@H](CC(N)=O)NC(=O)[C@H](Cc1ccc(O)cc1)NC(=O)[C@H](CC(N)=O)NC(=O)[C@@H]1CCCN1C(=O)[C@@H](N)CC(C)C)C(=O)N[C@@H](CCCNC(=N)N)C(=O)N[C@@H](Cc1ccccc1)C(N)=O` [KP13, Kisspeptin-13], in series [3], the EC50 worked out at 11 nM and the “Fold change compared to metastin” value came out at 1.

Regarding `CSCC[C@H](NC(=O)[C@H](Cc1ccccc1)NC(=O)CNC(=O)CNC(=O)[C@@H](N)Cc1ccc(O)cc1)C(=O)O` [OGF, Opioid Growth Factor], in series [4], the “stability of the peptide following pre-incubation” value was “remained stable”.

“(C2-20K)2-biphalin [Di-C2-PEG2-FMOC-NHS-20K-biphalin]”: the Ki was determined as 10.1 nM in series [1] (setting [12]) and 21.7 nM in series [1] (setting [13]).

As for “(CAC-20K)2-biphalin [Di-CAC-PEG2-FMOC-NHS-20K-biphalin]”, the Ki came out at 13.7 nM in series [1] (setting [12]) and 1120 nM in [1] (setting [13]).

As for (SBC-30K)2-biphalin, the “stability of the conjugate” value in series [2] (purification from the reaction mixture, even at acidic pH values) is reported as “instability”.

For “(SBC-30K)2-biphalin [Di-mPEG-SBC-30K-biphalin]”, the “Ki (nM), δ Opioid Receptor” value in series [5] (setting [12]) is reported as “not obtained”.

Take “(SPA-2K)2-biphalin [Di-mPEG-SPA-2K-biphalin]”: the “inhibition of specific binding at the highest test concentration” value in [1] (10 μM) and in series [5] (10 μM) was “no measurable inhibition” throughout.

On to “GHRH: growth hormone releasing hormone, stimulates growth hormone secretion from the anterior pituitary gland”, for which the half-life in series [6] was 0.167 to 0.333 h.

Consider “GTSLSPPPESSGSPQQPGLSAPHSRQIPAPQGAVLVQREKDLPNYNWNSFGLRF-NH2 [KP54, Kisspeptin-54]”, for which, in [3], the EC50 is 190 nM and the “Fold change compared to metastin” value amounted to 16.

For the compound “[Protegrin-1]-[PEG-di-ButyrAldehyde-5K]-[Protegrin-1] (RGGRLCYCRRRFCVCVGR-NH2; cysteine pairing not given here; also: two peptide copies linked by PEG-dibutyraldehyde 5K; UniProt P32194 131-148, looked up) [PG-1-PEG-5K-PG-1]”, the hemolytic effect entry in series [7] (listed as PG1-ButyrALD-5K-PG1) was “little hemolytic activity”. Also, in series [7] (listed as PG1-ButyrALD-PG1), the hemolytic effect entry is reported as “almost eliminated”. Moreover, in [8] (setting [14]), the “CL” value stood at 2.25 ± 0.154 mL/min/kg, the “T1/2” value is 6.8 ± 0.65 h and the “Vss” value is 0.248 ± 0.0221 L/kg.

Turning to “[mono]-[mPEG2-20K]-[V681(V13AD)] [NHS-20K-V681 (V13AD)]”, in series [9], the “AUCINF” value turned out to be 53.0 ± 1.1 µg·h/mL, the “CL” value was 0.315 ± 0.0065 mL/min/kg, the “Cmax” value turned out to be 5210 ± 211 ng/mL and the “MRT” value was 7.6 ± 1.1 h. Moreover, in [9], the “T1/2” value came to 5.8 ± 1.0 h, the “Vss” value was determined as 0.143 ± 0.0237 L/kg and the “mean AUC as multiple of V681 (V13AD)” value was 24 times. In addition, the hemolytic effects entry in series [10] is given as “almost eliminated”.

Regarding “[mono]-[mPEG-ButyrALD-30K]-[Kisspeptin-13] (LPNYNWNSFGLRF; also: mono-PEGylated with mPEG-ButyrALD 30K, site not given here; UniProt Q15726 109-121, looked up) [Ald30K-KP13]”, the “EC50 (nM)” value in series [3] is recorded as “No activity”.

As to “[mono]-[mPEG-SMB-30K]-[V681(V13AD)] [SMB-30K-V681 (V13AD)]”, in series [9], the “AUCINF” value worked out at 158 ± 43 µg·h/mL, the “CL” value came out at 0.11 ± 0.0267 mL/min/kg, the “Cmax” value is 4380 ± 505 ng/mL and the “MRT” value is 38.3 ± 18.2 h. For the same compound, in series [9], the “T1/2” value was determined as 26.6 ± 12.5 h, the “Vss” value worked out at 0.235 ± 0.05 L/kg and the “mean AUC as multiple of V681 (V13AD)” value was found to be 123 times. The hemolytic effects entry in series [10] is on record as “almost eliminated”.

For the compound “dextran-butyraldehyde-40K-protegrin-1 (RGGRLCYCRRRFCVCVGR-NH2; cysteine pairing not given here; also: dextran-butyraldehyde 40K conjugate; UniProt P32194 131-148, looked up) [Dextran-PG1]”, in series [7], the hemolytic effect entry was “almost eliminated”.

Consider “mono-[mPEG2-ButyrAldehyde-40K]-[Kisspeptin-54] (GTSLSPPPESSGSPQQPGLSAPHSRQIPAPQGAVLVQREKDLPNYNWNSFGLRF-NH2; also: mPEG2-ButyrAldehyde 40K conjugate, site not given here; UniProt Q15726 68-121, looked up) [Ald40K-KP54]”, for which the “EC50 (nM)” value in [3] is recorded as “No activity”.

In the case of “mono-[mPEG2-CAC-FMOC-40K]-[PG-1] (RGGRLCYCRRRFCVCVGR-NH2; cysteine pairing not given here; also: releasable CAC-PEG2-FMOC 40K PEG, mono-conjugate, site not given here; UniProt P32194 131-148, looked up) [CAC-PEG2-FMOC-40K-PG-1, PG1 conjugate with a releasable linker]”, the “hemolytic effects relative to that from PG1” value in series [7] (conjugate preincubated for 96 hr in 1XPBS at 37° C.) is 60-70%. Also, in [8] (setting [15]), the “T1/2 (hr)” value is on record as 0.13* hr and the “Tmax” value is 1.8 min.

Regarding “mono-mPEG-SBC-30K-ziconotide [SBC-ziconotide conjugate]”, in [11], the “stability of the conjugate” value is “very unstable”.

The values are drawn from patent US20110166063A1 (priority 2008, published 2011).
